Measured values as given in IntAct's records for PubMed 22357847.

Columns and labels:
rae1l_rat Rae1 [1] = target: rae1l_rat Rae1 (UniProt Q3SWS8)
rae1_caeel rae-1 = rae1_caeel rae-1 (UniProt Q93454)
rae1l_rat Rae1 [2] = target: rae1l_rat Rae1 (UniProt Q3SWS8); remark: listed apart in the source

Sequence of UniProt Q3SWS8 (Q3SWS8 whole entry): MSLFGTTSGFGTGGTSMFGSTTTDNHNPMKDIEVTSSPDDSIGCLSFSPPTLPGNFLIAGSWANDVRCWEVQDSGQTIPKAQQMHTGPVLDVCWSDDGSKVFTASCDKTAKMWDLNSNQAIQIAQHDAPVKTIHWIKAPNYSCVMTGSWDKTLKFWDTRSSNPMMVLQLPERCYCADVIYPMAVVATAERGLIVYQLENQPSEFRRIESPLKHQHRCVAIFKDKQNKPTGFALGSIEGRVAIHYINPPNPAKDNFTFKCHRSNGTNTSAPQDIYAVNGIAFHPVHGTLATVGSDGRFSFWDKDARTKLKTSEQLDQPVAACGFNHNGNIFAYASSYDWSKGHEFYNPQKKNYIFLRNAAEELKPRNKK
Sequence of UniProt Q93454 (Q93454 whole entry): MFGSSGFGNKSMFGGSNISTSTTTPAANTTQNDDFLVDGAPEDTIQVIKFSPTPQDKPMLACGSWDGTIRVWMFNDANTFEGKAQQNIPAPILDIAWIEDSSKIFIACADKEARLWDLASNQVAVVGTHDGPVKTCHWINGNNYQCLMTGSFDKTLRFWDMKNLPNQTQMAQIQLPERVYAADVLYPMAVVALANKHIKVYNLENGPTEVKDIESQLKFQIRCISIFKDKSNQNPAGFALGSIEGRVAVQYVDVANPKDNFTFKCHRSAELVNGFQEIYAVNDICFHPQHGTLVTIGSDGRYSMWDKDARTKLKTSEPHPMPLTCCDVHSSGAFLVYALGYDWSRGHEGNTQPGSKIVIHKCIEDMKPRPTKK

| effect of a mutation on the interaction (rae1l_rat Rae1 [1]) | effect of a mutation on the interaction (rae1_caeel rae-1) | effect of a mutation on the interaction (rae1l_rat Rae1 [2]) | Substance |
| --- | --- | --- | --- |
| disrupting interaction strength | – | – | E3 ubiquitin-protein ligase rpm-1 (Caenorhabditis elegans), Q17551 R2088A |
| decreasing interaction strength | disrupting interaction strength | disrupting interaction strength | E3 ubiquitin-protein ligase rpm-1 (Caenorhabditis elegans), Q17551 V2084A;I2087A;R2088A |
